The supplement of paper PMC10567573

B1: TFE3 (parent)
chain: FHLGLEDILMEEEEGVVGGLSGGA

Variants of: B1
Assay: protein stability index of a GFP-peptide fusion (GPS, HEK-293T) (PSI 1-6); higher = more stable
Conditions: c terminus: a fixed tail appended
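Further: lentivirally expressed fusions sorted by FACS into six bins by GFP to DsRed ratio, PSI derived from sequencing read proportions per bin multiplied by bin number.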

In order of rising protein stability index:
1. FHLGLEDILMEEEWGVVGGLSGGA [E14W]  1.43
2. FHLGLEDILMEEEFGVVGGLSGGA [E14F]  1.78
3. FHLGLIDILMEEEEGVVGGLSGGA [E6I]  1.88
4. FHLGLMDILMEEEEGVVGGLSGGA [E6M]  1.93
5. FHLGLWDILMEEEEGVVGGLSGGA [E6W]  2.02
6. FHLGLEDILMEEEIGVVGGLSGGA [E14I]  2.22
7. FHLGLEDILMEEEMGVVGGLSGGA [E14M]  2.27
8. FHLGLYDILMEEEEGVVGGLSGGA [E6Y]  2.31
9. FHLGLFDILMEEEEGVVGGLSGGA [E6F]  2.33
10. FHLGLVDILMEEEEGVVGGLSGGA [E6V]  2.34
11. FHLGLEDILMEEEYGVVGGLSGGA [E14Y]  2.39
12. FHLGLEDILMEEEVGVVGGLSGGA [E14V]  2.53
13. FHLGLEDILMEEEHGVVGGLSGGA [E14H]  2.54
14. FHLGLCDILMEEEEGVVGGLSGGA [E6C]  2.55
15. FHLGLGDILMEEEEGVVGGLSGGA [E6G]  2.58
16. FHLGLEDILMEAEEGVVGGLSGGA [E12A]  2.6
17. FHLGLEDILMEYEEGVVGGLSGGA [E12Y]  2.63
18. FHLGLEDIWMEEEEGVVGGLSGGA [L9W]  2.66
19. FHLGLEDILMEEELGVVGGLSGGA [E14L]  2.67
20. FHLGLADILMEEEEGVVGGLSGGA [E6A]  2.67
21. FHLGLKDILMEEEEGVVGGLSGGA [E6K]  2.68
22. FHLGLEDILMEEENGVVGGLSGGA [E14N]  2.72
23. FHLGLEDILMEEECGVVGGLSGGA [E14C]  2.73
24. FHLGLNDILMEEEEGVVGGLSGGA [E6N]  2.73
25. FHLGLSDILMEEEEGVVGGLSGGA [E6S]  2.82
26. FHLGLEDILMEEESGVVGGLSGGA [E14S]  2.83
27. FHLGLHDILMEEEEGVVGGLSGGA [E6H]  2.86
28. FHLGLEDILMEEEGGVVGGLSGGA [E14G]  2.94
29. FHLGLEDILMEEEQGVVGGLSGGA [E14Q]  2.98
30. FHLGLPDILMEEEEGVVGGLSGGA [E6P]  3.02
31. FHLGLTDILMEEEEGVVGGLSGGA [E6T]  3.04
32. FHLGLEDILMEEEAGVVGGLSGGA [E14A]  3.17
33. FHLGYEDILMEEEEGVVGGLSGGA [L5Y]  3.21
34. FHLGLEDILREEEEGVVGGLSGGA [M10R]  3.23
35. FHLGLEDILNEEEEGVVGGLSGGA [M10N]  3.23
36. FHLGLEDILMEEETGVVGGLSGGA [E14T]  3.25
37. FHLGLLDILMEEEEGVVGGLSGGA [E6L]  3.26
38. FHLGLEDIFMEEEEGVVGGLSGGA [L9F]  3.29
39. FHLGLEDILMESEEGVVGGLSGGA [E12S]  3.29
40. FHLGLRDILMEEEEGVVGGLSGGA [E6R]  3.3
41. FHLGLQDILMEEEEGVVGGLSGGA [E6Q]  3.31
42. FHLGLEDILMEEEKGVVGGLSGGA [E14K]  3.34
43. FHLGLEDILLEEEEGVVGGLSGGA [M10L]  3.44
44. FHLGMEDILMEEEEGVVGGLSGGA [L5M]  3.46
45. FHLGLEDILMEEEPGVVGGLSGGA [E14P]  3.53
46. FHLGLEDILMEEERGVVGGLSGGA [E14R]  3.55
47. FHLGLEDILWEEEEGVVGGLSGGA [M10W]  3.57
48. FHLGLDDILMEEEEGVVGGLSGGA [E6D]  3.58
49. FHLGLEDILHEEEEGVVGGLSGGA [M10H]  3.58
50. FHLGPEDILMEEEEGVVGGLSGGA [L5P]  3.59
51. FHLGLEDILYEEEEGVVGGLSGGA [M10Y]  3.62
52. FHLGLEDISMEEEEGVVGGLSGGA [L9S]  3.69
53. FHLGLEDIIMEEEEGVVGGLSGGA [L9I]  3.7
54. FHLGIEDILMEEEEGVVGGLSGGA [L5I]  3.7
55. FHLGKEDILMEEEEGVVGGLSGGA [L5K]  3.76
56. FHLGLEDILMEDEEGVVGGLSGGA [E12D]  3.77
57. FHLGLEDILIEEEEGVVGGLSGGA [M10I]  3.81
58. FHLGLEDILMEEEDGVVGGLSGGA [E14D]  3.82
59. FHLGLEDILVEEEEGVVGGLSGGA [M10V]  3.83
60. FHLGLEDILCEEEEGVVGGLSGGA [M10C]  3.83
61. FHLGLEDILFEEEEGVVGGLSGGA [M10F]  3.83
62. FHLGNEDILMEEEEGVVGGLSGGA [L5N]  3.85
63. FHLGLEDIYMEEEEGVVGGLSGGA [L9Y]  3.87
64. FHLGLEDILTEEEEGVVGGLSGGA [M10T]  3.88
65. FHLGHEDILMEEEEGVVGGLSGGA [L5H]  3.91
66. FHLGLEDILKEEEEGVVGGLSGGA [M10K]  3.94
67. FHLGLEDIDMEEEEGVVGGLSGGA [L9D]  4
68. FHLGLEDILAEEEEGVVGGLSGGA [M10A]  4
69. FHLGLEDILGEEEEGVVGGLSGGA [M10G]  4.02
70. FHLGREDILMEEEEGVVGGLSGGA [L5R]  4.04
71. FHLGLEDICMEEEEGVVGGLSGGA [L9C]  4.06
72. FHLGLEDIHMEEEEGVVGGLSGGA [L9H]  4.08
73. FHLGLEDILSEEEEGVVGGLSGGA [M10S]  4.08
74. FHLGLEDIMMEEEEGVVGGLSGGA [L9M]  4.1
75. FHLGLEDIVMEEEEGVVGGLSGGA [L9V]  4.11
76. FHLGLEDILDEEEEGVVGGLSGGA [M10D]  4.13
77. FHLGLEDIKMEEEEGVVGGLSGGA [L9K]  4.17
78. FHLGLEDILPEEEEGVVGGLSGGA [M10P]  4.18
79. FHLGLEDIPMEEEEGVVGGLSGGA [L9P]  4.21
80. FHLGWEDILMEEEEGVVGGLSGGA [L5W]  4.21
81. FHLGLEDIAMEEEEGVVGGLSGGA [L9A]  4.22
82. FHLGTEDILMEEEEGVVGGLSGGA [L5T]  4.23
83. FHLGLEDILEEEEEGVVGGLSGGA [M10E]  4.27
84. FHLGLEDINMEEEEGVVGGLSGGA [L9N]  4.33
85. FHLGLEDILQEEEEGVVGGLSGGA [M10Q]  4.34
86. FHLGLEDITMEEEEGVVGGLSGGA [L9T]  4.37
87. FHLGSEDILMEEEEGVVGGLSGGA [L5S]  4.37
88. FHLGLEDIQMEEEEGVVGGLSGGA [L9Q]  4.39
89. FHLGLEDIGMEEEEGVVGGLSGGA [L9G]  4.43
90. FHLGQEDILMEEEEGVVGGLSGGA [L5Q]  4.46
91. FHLGLEDIRMEEEEGVVGGLSGGA [L9R]  4.5
92. FHLGGEDILMEEEEGVVGGLSGGA [L5G]  4.52
93. FHLGVEDILMEEEEGVVGGLSGGA [L5V]  4.53
94. FHLGLEDIEMEEEEGVVGGLSGGA [L9E]  4.57
